Assay results from paper PMC2930068.
Where two headings read alike, the source gives them in different places. Values belong to the substance of their own block, whether it stands above or below them.

Legend:
STAT1 = STAT1 (UniProt P42224); experiment: sedimentation velocity analytical ultracentrifugation; conditions: reference: uSTAT1; sites Y701
[1] = biological target: full-length importin-α5 with C-terminal Strep-tag (human) (UniProt P52294); experiment: SEC
[2] = biological target: GST-importin α5 (1-538) Tyr476Gly (human) (UniProt P52294); experiment: SPR
[3] = biological target: GST-importin α5 (res. 1-538) (human) (UniProt P52294); experiment: SPR
[4] = biological target: GST-importin α1/α5 (res. 1-446 of α1/449-538 of α5) (human) (UniProt P52292); experiment: SPR
[5] = biological target: importin α5, GST-tag removed (human) (UniProt P52294); experiment: AUC
[6] = biological target: GST-importin α5 (res. 1-538) (human) (UniProt P52294); experiment: SPR; remark: listed apart in the source
[7] = biological target: GST-importin α5 (1-538) Tyr476Gly (human) (UniProt P52294); experiment: SPR; remark: listed apart in the source

Sequence of GST-importin α5 (1-538) Tyr476Gly (human) (P52294 whole entry Y476G): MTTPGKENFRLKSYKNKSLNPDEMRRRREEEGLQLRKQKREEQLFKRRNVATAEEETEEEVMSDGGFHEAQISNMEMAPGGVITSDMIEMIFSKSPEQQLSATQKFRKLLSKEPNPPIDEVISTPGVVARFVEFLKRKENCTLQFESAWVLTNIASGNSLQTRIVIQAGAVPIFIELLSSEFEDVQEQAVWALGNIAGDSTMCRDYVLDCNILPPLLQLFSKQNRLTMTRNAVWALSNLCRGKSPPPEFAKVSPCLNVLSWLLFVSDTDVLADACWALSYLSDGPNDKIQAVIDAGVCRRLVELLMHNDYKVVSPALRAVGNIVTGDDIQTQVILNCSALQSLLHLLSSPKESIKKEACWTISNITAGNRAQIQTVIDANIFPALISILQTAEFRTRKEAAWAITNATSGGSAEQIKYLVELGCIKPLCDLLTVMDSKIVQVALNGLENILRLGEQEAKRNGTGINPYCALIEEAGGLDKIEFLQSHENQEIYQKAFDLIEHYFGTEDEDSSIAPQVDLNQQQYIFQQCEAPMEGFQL
Sequence of phosphorylated-Tyr701 STAT1 (1-712), N-terminal 6-histidine tag (P42224 1-712): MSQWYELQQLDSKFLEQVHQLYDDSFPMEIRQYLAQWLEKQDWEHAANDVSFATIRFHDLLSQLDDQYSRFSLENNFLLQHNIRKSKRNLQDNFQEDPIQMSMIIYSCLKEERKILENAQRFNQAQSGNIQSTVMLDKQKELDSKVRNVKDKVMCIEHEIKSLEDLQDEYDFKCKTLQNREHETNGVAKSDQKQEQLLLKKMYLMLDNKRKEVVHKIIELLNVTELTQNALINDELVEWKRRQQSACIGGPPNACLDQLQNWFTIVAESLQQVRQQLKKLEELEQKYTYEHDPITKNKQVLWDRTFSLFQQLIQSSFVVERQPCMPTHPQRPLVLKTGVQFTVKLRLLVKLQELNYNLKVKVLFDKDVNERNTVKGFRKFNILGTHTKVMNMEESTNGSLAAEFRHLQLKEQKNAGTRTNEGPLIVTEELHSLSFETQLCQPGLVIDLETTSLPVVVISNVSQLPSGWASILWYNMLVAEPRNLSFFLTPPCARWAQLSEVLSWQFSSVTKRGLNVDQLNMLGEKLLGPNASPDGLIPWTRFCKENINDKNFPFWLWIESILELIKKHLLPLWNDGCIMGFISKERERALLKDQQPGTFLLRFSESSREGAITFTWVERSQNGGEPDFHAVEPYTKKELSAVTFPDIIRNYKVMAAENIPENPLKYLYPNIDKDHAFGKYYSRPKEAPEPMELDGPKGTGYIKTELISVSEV
Sequence of STAT1 (UniProt P42224) (P42224 whole entry): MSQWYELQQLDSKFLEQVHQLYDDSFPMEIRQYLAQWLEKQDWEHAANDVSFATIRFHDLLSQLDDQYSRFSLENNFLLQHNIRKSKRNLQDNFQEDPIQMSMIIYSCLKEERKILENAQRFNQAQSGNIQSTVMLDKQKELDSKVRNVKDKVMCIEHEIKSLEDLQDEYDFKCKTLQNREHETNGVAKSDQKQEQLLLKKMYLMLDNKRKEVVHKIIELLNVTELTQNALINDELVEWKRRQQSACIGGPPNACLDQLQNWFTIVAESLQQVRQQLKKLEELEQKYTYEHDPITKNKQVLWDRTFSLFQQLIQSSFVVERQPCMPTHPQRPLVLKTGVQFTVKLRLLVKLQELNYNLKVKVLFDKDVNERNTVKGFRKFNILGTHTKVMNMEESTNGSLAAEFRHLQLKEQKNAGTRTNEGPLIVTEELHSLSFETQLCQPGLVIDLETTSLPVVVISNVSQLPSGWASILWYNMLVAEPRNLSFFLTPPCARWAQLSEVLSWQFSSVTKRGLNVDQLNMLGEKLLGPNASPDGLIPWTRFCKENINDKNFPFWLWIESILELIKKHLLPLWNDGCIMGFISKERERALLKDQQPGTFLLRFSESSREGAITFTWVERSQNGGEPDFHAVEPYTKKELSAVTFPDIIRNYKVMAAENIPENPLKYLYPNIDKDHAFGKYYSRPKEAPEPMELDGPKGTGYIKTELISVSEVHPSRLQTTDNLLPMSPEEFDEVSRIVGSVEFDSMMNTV
Sequence of STAT1 (from UniProt P42224) pSTAT1 (P42224 whole entry, change not shown): as the sequence (P42224 whole entry) above

other: molecular weight (STAT1): same; reference ~180
Substance: STAT1 (from UniProt P42224) pSTAT1

stoichiometry N (pSTAT1 dimer per importin α5 molecule) [1]: 1
Substance: Strep-tagged phosphorylated-Tyr701 STAT1 (from UniProt P42224 1-750) (natural protein)

Kd [2]: 4300 nM
koff [2]: 0.289 s⁻¹
kon [2]: 66600 M⁻¹ s⁻¹
Kd [3]: 191 nM
koff [3]: 0.0189 s⁻¹
kon [3]: 98800 M⁻¹ s⁻¹
Kd [4]: 542 nM
stoichiometry N (pSTAT1 dimer per importin α5 molecule) [5]: 1
koff [6]: 0.0183 s⁻¹
koff [7]: 289 s⁻¹
Substance: phosphorylated-Tyr701 STAT1 (1-712), N-terminal 6-histidine tag (from UniProt P42224-2 1-712) (natural protein)
